# Patent US20110092427A1, “POLYPEPTIDE AND PHARMACEUTICAL COMPOSITION CONTAINING THE POLYPEPTIDE” (National University Corporation Hokkaido Universit y, priority 2008, published 2011)
# Peptide text beside a SMILES is read from it.
# What was measured:
# [1] = system: psoriasis patient-derived skin grafted onto the back of a mouse; assay: External application to psoriasis patient skin grafted onto SCID mice; assay type: in vivo; settings: for side effects at the applied sites: 70 μL of 1 mM solution in PBS applied to grafted site daily for 14 days; for thickness of the grafted skin (HE-stained sections): psoriasis skin graft, 70 μL of 1 mM solution applied daily for 14 days, FIG. 6, p<0.05
# Source text: The hair in the area of approximately 1 cm^2 in the back of 7 to 8 week-old SCID mice (Clea Japan, Inc.) was shaved, and the full-thickness skin was removed while keeping the vessel plexus intact on the fascia overlying back muscles. The skin of affected area of a psoriasis patient that was sampled under the approval of the ethical code was washed with PBS containing 1% penicillin, 1% streptomycine, and 1% amphotericin B, and each piece of the skin thus treated was separately transplanted onto the skin-removed area of the above-described mice.
# Seven days after transplantation, 70 μL of each of solutions prepared by dissolving polypeptides P5-1, P5-2, and P5-3 into phosphate buffered saline (PBS) (each 1 mM) was applied to the grafted sites of three mice daily for 14 days. […] Further, as a control, the same volumes of PBS solution containing a polypeptide having a random sequence and PBS without polypeptide were applied. After 14 days, a part of the grafted skin was collected and embedded in an optimal cutting temperature (OCT) reagent (Sakura finetechnical Co., Ltd.) and then frozen in liquid nitrogen, which was then prepared as 5 μm-thick sections.
# Also, in accordance with the method of Abe et al. (Am. J. Pathol., 2004, Vol. 164, No. 4, pages 1225-1232), the capillary endothelial cells in the grafted superficial dermis were enumerated by immunoassay employing a rat anti-mouse CD31 antibody using CD31, which was a marker protein of the capillary endothelial cells, as an index.
# [2] = system: human osteosarcoma cells, MG63; assay: Inhibition of MG63 tumor cell proliferation, 5-bromo-2' deoxyuridine incorporation; assay type: cell-based; settings: 100 nM; FIG. 3 and FIG. 4, p<0.01
# Procedure: (§1) The inhibitory effect of each polypeptide on tumor cell proliferation with respect to human osteosarcoma cells, MG63 (Health Science Research Resources) was measured in accordance with the method described by Takenaka et al. (Life Science, 2005, Vol. 77, pages 3231-3241).
# (§2) Into Dulbecco's modified Eagle's medium (DMEM) supplemented with 10% of fetal bovine serum (FBS) and 100 units/mL penicillin and streptomycin (hereinbelow, simply referred to as a medium), MG63 was suspended. Then, 100 nM commercially available PEDF protein (Sigma) and each of 100 nM polypeptides F1 to F3 prepared in Example 1 “2) Production of polypeptides F1 to F3” were each added per medium, followed by incubation at 37° C. for 24 hours. Subsequently, [^3H] thymidine (Amersham Biosciences Corp.) was added and incubation was carried out for four hours, after which the amount of [^3H] thymidine incorporation by MG63 was measured and the inhibitory effect on tumor cell proliferation was examined.
# Also, by carrying out similar operations to the above, the inhibitory effect on MG63 tumor cell proliferation was examined by measuring the amount of 5-bromo-2′ deoxyuridine (Roche) incorporation with addition of each of 100 nM polypeptides P1 to P6. […]
# [3] = system: psoriasis patient-derived skin grafted onto the back of mice; assay: Subcutaneous injection at psoriasis patient skin grafted onto SCID mice; assay type: in vivo; settings: skin of affected area of a psoriasis patient, 30 μg subcutaneous injection, three times/week for three weeks
# Source text: (§3) Further, in a similar manner to the above, the hair in the area of approximately 1 cm^2 in the back of 7 to 8 week old SCID mice (Clea Japan, Inc.) was shaved, and the full-thickness skin was removed while keeping the vessel plexus intact on the fascia overlying back muscles. The skin of affected area of a psoriasis patient and the skin of a normal individual that were sampled under the approval of the ethical code were each washed with PBS containing 1% penicillin and 1% amphotericin B, and each of the skin thus treated was separately transplanted onto the skin-removed area of the above-described mice.
# (§4) Seven days after transplantation, commercially available PEDF protein (30 μg) was given at the grafted site by subcutaneous injection. The injection was administered for three weeks at three times/week. As a control, a mouse given subcutaneous injection of only PBS was used. The day after the last subcutaneous injection, a part of the grafted skin was collected and stained with HE in a similar manner to the above, and the thickness of the grafted skin was measured. The results obtained from the skin of affected area of a psoriasis patient are shown in FIG. 8 (photograph) and FIG. 9, and the results obtained from the skin of a normal individual are shown in FIG. 10 (photograph) and FIG. 11.
# (§5) Also, by carrying out similar operations to the above, the capillary endothelial cells were enumerated using CD31 as an index. The results obtained from the skin of affected area of a psoriasis patient are shown in FIG. 12 and the results obtained from the skin of a normal individual are shown in FIG. 13.
# (§6) Further, the frequency of Ki-67 expressing positive cells, where Ki-67 is a proliferation marker of the basal cell layer, was measured in accordance with the method of Gilhar et al. (Am. J. Pathol., 2006, Vol. 168, No. 1, pages 170 to 175). The results obtained from the skin of affected area of a psoriasis patient are shown in FIG. 14 and the results obtained from the skin of a normal individual are shown in FIG. 15.
# [4] = system: normal individual-derived skin grafted onto the back of mice; assay: Subcutaneous injection at normal individual skin grafted onto SCID mice; assay type: in vivo; settings: skin of a normal individual, 30 μg subcutaneous injection, three times/week for three weeks
# Source text: as §3, §4, §5, §6
# [5] = system: human osteosarcoma cells, MG63; assay: Inhibition of MG63 tumor cell proliferation, [3H] thymidine incorporation; assay type: cell-based; settings: 100 nM, incubation 24 hours, then [3H] thymidine four hours; FIG. 2, p<0.01
# Procedure: as §1, §2
molecule,measurement,setting,value
CC(C)C[C@H](NC(=O)[C@@H](N)Cc1c[nH]cn1)C(=O)N[C@H](C(=O)N[C@@H](Cc1ccccc1)C(=O)N1CCC[C@H]1C(=O)N[C@@H](CC(C)C)C(=O)N[C@@H](CC(=O)O)C(=O)O)[C@@H](C)O [polypeptide P5-1] (H-HLTFPLD-OH),side effects at the applied sites,[1],no side effects and the like were apparent
"polypeptide P5-2: polypeptide of SEQ ID NO: 2, identical to positions 388 to 394 of PEDF (YHLNQP; listed as Homo sapiens)",side effects at the applied sites,[1],no side effects and the like were apparent
same,thickness of the grafted skin (HE-stained sections),[1],significantly reduced
"polypeptide P5-3: polypeptide of SEQ ID NO: 3, identical to positions 395 to 400 of PEDF (FIFVLRD; listed as Homo sapiens)",side effects at the applied sites,[1],no side effects and the like were apparent
same,thickness of the grafted skin (HE-stained sections),[1],significantly reduced
"polypeptide P5: polypeptide of SEQ ID NO: 5, identical to the amino acid sequence of positions 381 to 400 of PEDF (HLTFPLDYHLNQPFIFVLRD; listed as Homo sapiens)",inhibitory effect on MG63 tumor cell proliferation (amount of 5-bromo-2' deoxyuridine incorporation),[2],an inhibitory effect on tumor cell proliferation was confirmed
"PEDF protein: commercially available PEDF protein comprising the amino acid sequence of SEQ ID NO: 6 (Sigma) (protein, listed as Homo sapiens) MQALVLLLCIGALLGHSSCQNPASPPEEGSPDPDSTGALVEEEDPFFKVPVNKLAAAVSNFGYDLYRVRSSTSPTTNVLLSPLSVATALSALSLGAEQRTESIIHRALYYDLISSPDIHGTYKELLDTVTAPQKNLKSASRIVFEKKLRIKSSFVAPLEKSYGTRPRVLTGNPRLDLQEINNWVQAQMKGKLARSTKEIPDEISILLLGVAHFKGQWVTKFDSRKTSLEDFYLDEERTVRVPMMSDPKAVLRYGLDSDLSCKIAQLPLTGSMSIIFFLPLKVTQNLTLIEESLTSEFIHDIDRELKTVQAVLTVPKLKLSYEGEVTKSLQEMKLQSLFDSPDFSKITGKPIKLTQVEHRAGFEWNEDGAGTTPSPGLQPAHLTFPLDYHLNQPFIFVLRDTDTGALLFIGKILDPRGP",thickness of the grafted skin,"[3]; FIG. 9, p<0.05",significantly reduced
same,number of capillary endothelial cells (CD31-positive),"[3]; FIG. 12, p<0.05",significantly reduced
same,frequency of Ki-67 expressing positive cells in the basal cell layer,"[3]; FIG. 14, p<0.05",significantly reduced
same,thickness of the grafted skin,"[4]; FIG. 11, p<0.05",significantly reduced
same,number of capillary endothelial cells (CD31-positive),"[4]; FIG. 13, p<0.05",significantly reduced
same,frequency of Ki-67 expressing positive cells in the basal cell layer,"[4]; FIG. 15, p<0.05",significantly reduced
"polypeptide F3: polypeptide comprising the amino acid sequence of positions 301 to 418 of PEDF (SEQ ID NO: 4) (protein, listed as Homo sapiens) IDRELKTVQAVLTVPKLKLSYEGEVTKSLQEMKLQSLFDSPDFSKITGKPIKLTQVEHRAGFEWNEDGAGTTPSPGLQPAHLTFPLDYHLNQPFIFVLRDTDTGALLFIGKILDPRGP",inhibitory effect on tumor cell proliferation (amount of [3H] thymidine incorporation by MG63),[5],a strong inhibitory effect on tumor cell proliferation was confirmed
